Data on 16 substances can be found in PMC8761706.

“And” between values parts separate entries of the source, which are not always exact repeats. Equal values may be shown once.

The target in assay [1] is fibrinogen fragment D (human). As to the kind of experiment: other fluorescence titration; fluorescein-labeled construct at fixed concentration titrated with frag D; fluorescence intensity; 25 °C; 50 mM Hepes, 110 mM NaCl, 5 mM CaCl2, 1 mg/ml PEG-8000, pH 7.4, 10 μM FPR-CK; quadratic fit; n fixed to 1 for the Ala constructs and MP.
Assay [2] concerns the target fibrinogen fragment D (human). Put plainly: native gel or EMSA; incubated 30 min at 25 °C in 50 mM Hepes, 110 mM NaCl, 5 mM CaCl2, 1 mg/ml PEG-8000, 10 μM FFR-CK and FPR-CK with molar excess of frag D; 6% Tris–glycine gel without SDS, 4 °C; GelCode Blue and fluorescence. Background: A gel shift assay detects complexes by their altered migration in electrophoresis.
Assay [3] concerns the target fibrinogen fragment D (human). As to the kind of experiment: other fluorescence titration; fluorescence intensity; 20 mM sodium phosphate, 150 mM NaCl, 1 mg/ml PEG-8000, 10 μM FPR-CK, pH 7.4; n fixed to 1.
In assay [4] the target is fibrinogen fragment D (human). As to the kind of experiment: other fluorescence titration; fluorescence intensity; 20 mM sodium phosphate, 150 mM NaCl, 1 mg/ml PEG-8000, 10 μM FPR-CK, pH 7.0; n fixed to 1.
Assay [5] has as its target fibrinogen fragment D (human). Put plainly: fluorescence polarisation; competitive fluorescence anisotropy; unlabeled construct titrated into mixtures of fixed [5F]PR–(R1 → R7) with two frag D concentrations; cubic equation, fit together with the direct titrations. In general terms: Polarisation of emitted light reports the rotation of a fluorescent probe.
Assay [6] has as its target fibrinogen fragment D fragment D (Homo sapiens) (UniProt P02671). The note with it: cited from earlier work.
Assay [7] addresses staphylocoagulase SC(1–660), full-length (Staphylococcus aureus Newman D2 Tager 104). As to the kind of experiment: native gel or EMSA; incubated 30 min at 25 °C in 50 mM Hepes, 110 mM NaCl, 5 mM CaCl2, 1 mg/ml PEG-8000, 10 μM FFR-CK and FPR-CK with molar excess of frag D; 6% Tris–glycine gel without SDS, 4 °C; GelCode Blue and fluorescence.
The target in assay [8] is fibrinogen fragment D (human). Put plainly: fluorescence polarisation; fluorescence anisotropy; [5F]PR–(R1 → R7) titrated with frag D; 'the same buffer'; quadratic fit, n not fixed; independent, noncooperative sites assumed.

Sequence of fibrinogen fragment D fragment D (Homo sapiens) (P02671 20-866, chain 1 of 3): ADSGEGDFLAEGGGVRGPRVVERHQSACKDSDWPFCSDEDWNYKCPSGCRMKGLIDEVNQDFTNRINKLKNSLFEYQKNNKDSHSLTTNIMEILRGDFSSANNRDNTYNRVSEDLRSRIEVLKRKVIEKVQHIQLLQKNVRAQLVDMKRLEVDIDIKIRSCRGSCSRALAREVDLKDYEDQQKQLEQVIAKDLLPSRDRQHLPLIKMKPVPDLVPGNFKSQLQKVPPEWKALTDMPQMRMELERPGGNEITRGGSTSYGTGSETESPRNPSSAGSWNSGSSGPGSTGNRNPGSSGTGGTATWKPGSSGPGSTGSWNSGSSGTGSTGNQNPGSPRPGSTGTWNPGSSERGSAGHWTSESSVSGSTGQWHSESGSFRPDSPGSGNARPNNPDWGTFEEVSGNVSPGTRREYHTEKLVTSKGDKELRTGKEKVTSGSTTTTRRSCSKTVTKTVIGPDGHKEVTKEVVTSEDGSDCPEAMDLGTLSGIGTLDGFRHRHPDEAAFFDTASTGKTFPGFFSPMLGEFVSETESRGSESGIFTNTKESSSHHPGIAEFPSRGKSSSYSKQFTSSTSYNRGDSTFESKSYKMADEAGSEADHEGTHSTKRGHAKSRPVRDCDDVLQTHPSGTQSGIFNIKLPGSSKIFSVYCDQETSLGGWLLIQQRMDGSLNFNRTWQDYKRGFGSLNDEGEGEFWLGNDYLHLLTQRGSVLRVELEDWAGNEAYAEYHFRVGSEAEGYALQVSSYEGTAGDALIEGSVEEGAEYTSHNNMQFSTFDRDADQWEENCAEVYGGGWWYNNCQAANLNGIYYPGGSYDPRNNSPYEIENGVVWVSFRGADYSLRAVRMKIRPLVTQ
Sequence of fibrinogen fragment D fragment D (Homo sapiens) (P02675 31-491, chain 2 of 3, further chain): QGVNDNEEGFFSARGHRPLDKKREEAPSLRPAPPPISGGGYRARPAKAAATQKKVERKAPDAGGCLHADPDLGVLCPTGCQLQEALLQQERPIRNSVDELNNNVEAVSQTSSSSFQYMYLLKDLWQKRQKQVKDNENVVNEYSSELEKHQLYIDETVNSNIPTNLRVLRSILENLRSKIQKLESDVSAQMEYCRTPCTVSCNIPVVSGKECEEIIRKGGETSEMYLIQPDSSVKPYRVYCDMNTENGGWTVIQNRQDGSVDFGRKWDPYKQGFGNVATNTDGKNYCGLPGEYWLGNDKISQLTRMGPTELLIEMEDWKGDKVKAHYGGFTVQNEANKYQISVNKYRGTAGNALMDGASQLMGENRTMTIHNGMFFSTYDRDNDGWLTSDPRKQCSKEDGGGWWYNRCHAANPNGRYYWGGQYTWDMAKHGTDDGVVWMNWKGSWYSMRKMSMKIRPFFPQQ
Sequence of fibrinogen fragment D fragment D (Homo sapiens) (P02679 27-453, chain 3 of 3, further chain): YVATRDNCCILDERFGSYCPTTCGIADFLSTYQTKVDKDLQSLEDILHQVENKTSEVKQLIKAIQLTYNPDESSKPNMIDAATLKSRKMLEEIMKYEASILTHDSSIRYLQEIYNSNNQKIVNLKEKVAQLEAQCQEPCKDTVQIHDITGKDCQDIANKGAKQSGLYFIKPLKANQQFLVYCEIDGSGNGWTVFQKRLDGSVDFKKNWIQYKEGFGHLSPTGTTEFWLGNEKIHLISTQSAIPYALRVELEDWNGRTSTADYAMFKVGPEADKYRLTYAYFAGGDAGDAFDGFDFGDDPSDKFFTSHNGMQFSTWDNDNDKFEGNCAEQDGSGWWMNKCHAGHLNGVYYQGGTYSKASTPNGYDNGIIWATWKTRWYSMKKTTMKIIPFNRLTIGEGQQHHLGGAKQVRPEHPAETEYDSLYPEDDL

As to [5F]PR–R1 (domain or fragment), in assay [1], the stoichiometry N (mol frag D/mol repeat) is 1.
For the substance [5F]PR–R3 (domain or fragment), in assay [1], the Kd is 99 nM and the stoichiometry N (mol frag D/mol repeat) was found to be 1.1.
Substance [5F]PR–R1R6R7 (domain or fragment) came in with a stoichiometry N (frag D per construct) in assay [2] of 3.
Consider [5F]PR–R7 (domain or fragment), for which the Kd in assay [3] came to 27 nM; in assay [1], 112 nM; in assay [4] it was 3000 nM. Also, the stoichiometry N (mol frag D/mol repeat) in assay [1] was 0.8.
In the case of “PR–R3R6R7 (unlabeled competitor) (domain or fragment)”, in assay [5], the Kd stood at 42 nM and the stoichiometry N (mol frag D/mol repeat) was found to be 3.
With “PR–R3R4R7 (unlabeled competitor) (domain or fragment)”, in assay [5], the Kd is 42 nM and the stoichiometry N (mol frag D/mol repeat) was determined as 2.8.
For the substance “PR–R1R6R7 (unlabeled competitor) (domain or fragment)”, in assay [5], the Kd was determined as 8 nM and the stoichiometry N (mol frag D/mol repeat) came out at 3.
[5F]PR–R7-SETNA (domain or fragment): the Kd in assay [1] is 120 nM.
In assay [1], [5F]PR–R6 (domain or fragment) yielded a Kd of 115 nM and a stoichiometry N (mol frag D/mol repeat) of 0.8.
Regarding [5F]PR–R2 (domain or fragment), in assay [1], the Kd worked out at 130 nM and the stoichiometry N (mol frag D/mol repeat) worked out at 0.9.
For the substance [5F]PR–R1R2R3 (domain or fragment), the stoichiometry N (frag D per construct) in assay [2] came to 3.
As to “PR–R1R2R3 (unlabeled competitor) (domain or fragment)”, the stoichiometry N (mol frag D/mol repeat) in assay [5] is 3.3 and 3.5 and 2.5.
For the substance “staphylocoagulase SC(1–660), full-length (natural protein)”, the stoichiometry N (frag D per SC(1–660)) in assay [2] was 5 and 6.
As to “staphylocoagulase PR-R1 (from UniProt P07767)”, in assay [6], the Kd was 36 nM.
Consider “[5F]ProT, prothrombin labeled at the active site with 5-fluorescein (natural protein)”, for which, in assay [7], the stoichiometry N was found to be 1 mol/mol.
In assay [2], “[5F]PR–(R1 → R7), full-length C-terminal repeat construct (domain or fragment)” had a stoichiometry N (frag D per construct) of 7. For the same substance, in assay [8], the stoichiometry N (mol frag D/mol repeat) was 5.2 and 4.8 and 5.1.

For orientation: Kd means the free concentration of one partner at which half of the binding sites on the other are occupied at equilibrium, for simple one-to-one binding. The stoichiometry N is the number of molecules, sites or subunits per partner or assembly.
